Experimental findings from patent publication US20230287070A1, “NOVEL TUMOR-SPECIFIC ANTIGENS FOR ACUTE MYELOID LEUKEMIA (AML) AND USES THEREOF” (UNIVERSITE DE MONTREAL, priority 2020, published 2023) are described below.

For assay [1], the system named is T-cell clonotypes. In words: FEST assay (functional expansion of specific T cells, TCR Vβ CDR3 sequencing). It counts as cell-based, human. The conditions noted are these: pool of TSAs^hi, healthy donor. How it is done: For FEST assays, T cells were cultured as previously described, with minor modifications (Danilova et al., 2018). Briefly, on day 0, thawed PBMCs from a healthy donor (BioIVT) were T-cell enriched using the Human Pan T-cell isolation kit (Miltenyi). T cells were resuspended at 2 × 10^6/mL in AIM V media supplemented with 50 µg/mL gentamicin (ThermoFisher Scientific) and 1% Hepes. The T cell-negative fraction was irradiated at 30 Gy, washed and resuspended at 2.0 × 10^6/mL in AIM V media supplemented with 50 µg/mL gentamicin and 1% Hepes. One ml per well of both T cells and irradiated T cell-depleted cells were added to a 12-well plate, along with either one of the 3 TSA^hi pools (5 TSAs^hi per pool, 1 µM final concentration for each TSA) or without peptide. Cells were cultured for 10 days at 37° C., 5% CO2. On day 3 and 7, half the culture media was replaced with fresh culture media containing 100 IU/mL IL-2, 50 ng/mL IL-7, and 50 ng/mL IL-15 (day 3) and 200 IU/mL IL-2, 50 ng/mL IL-7, and 50 ng/mL IL-15 (day 7). On day 10, cells were harvested and CD8^+ cells were further isolated using the Human CD8^+ T Cell Isolation Kit (Miltenyi). As a negative control, CD8^+ T cells were also isolated from freshly thawed uncultured PBMCs of the same healthy donor. DNA was extracted from CD8^+ T cells using a Qiagen DNA blood mini kit (Qiagen). […]

For assay [2], the target named is Pool 2 of TSAs^hi: … … … … …. Description: cell-based or functional assay.
The target in assay [3] is Pool 1 of TSAs^hi: … … … IASPIALL …. In words: cell-based or functional assay.
For assay [4], the target named is Pool 3 of TSAs^hi: LRSQILSY … … … …. Description: cell-based or functional assay.

Regarding “3 (GARQQIHSW; listed as Homo sapiens) [compound 3]”, in assay [1], the “Significantly expanded clonotype (SEQ ID NO:)” value is given as “CARSFGGFF (213)”. As to CASSRTGENTEAFF (TCR), in assay [2], the FEST assay: clonotype expansion, odds ratio (FDR 0.003813) was 3.35. Turning to CASSEYRALNTEAFF (TCR), in assay [2], the FEST assay: clonotype expansion, odds ratio (FDR 4.67 E-30) amounted to 59.8. On to CASSDRTGGSSNEKLFF (TCR), for which the FEST assay: clonotype expansion, odds ratio (FDR 0.008031) in assay [2] came out at 8.21. As to CATSRSGDSNQPQHF (TCR), the FEST assay: clonotype expansion, odds ratio (FDR 0.008031) in assay [2] is 8.21. Turning to CASTVVAGNSSPLHF (TCR), the FEST assay: clonotype expansion, odds ratio (FDR 1.2 E-07) in assay [3] worked out at 18.8.

As to CASSESGTGGQPQHF (TCR), the FEST assay: clonotype expansion, odds ratio (FDR 1.14 E-08) in assay [2] is 3.46. Consider CASSADSSLGGYTF (TCR), for which, in assay [4], the FEST assay: clonotype expansion, odds ratio (FDR 1.13 E-10) worked out at 45.4. In the case of CASSSTDRQHYGYTF (TCR), the FEST assay: clonotype expansion, odds ratio (FDR 0.007052) in assay [2] was 3.76. On to CASSYVLNTEAFF (TCR), for which the FEST assay: clonotype expansion, odds ratio (FDR 0.010284) in assay [2] is 10.8. Consider CASSVDAGGNYEQYF (TCR), for which the FEST assay: clonotype expansion, odds ratio (FDR 0.000665) in assay [3] was found to be 12.3.
